In US20070036794A1 (Genentech, published 2007):
Like-named read-outs stand apart in the source and are kept apart here.

How the values were obtained:
[1] = biological target: T1, gD-tagged trkC (human trkC-gD) (human, UniProt Q16288 32-429); test: SPR (BIAcore), summary table
T1 construct: purified antigen of the ELISAs and SPR; also called gD-trkC

[2] = biological target: T2, trkC fused with a gD flag epitope, on stably transfected CHO cells (KIRA); test: cell-based or functional assay
trkC mutant R285A [3] = biological target: T3, trkC mutant R285A (human, UniProt Q16288 32-429, limits assumed); test: binding titration on trkC point mutants
T3 construct: point mutant in domain 5

trkC mutant L286H [4] = biological target: T4, trkC mutant L286H (human, UniProt Q16288 32-429, limits assumed); test: binding titration on trkC point mutants
T4 construct: point mutant in domain 5

trkC mutant H318A = biological target: T5, trkC mutant H318A (human, UniProt Q16288 32-429, limits assumed); test: binding titration on trkC point mutants
T5 construct: point mutant in domain 5

[5] = biological target: T1, gD-tagged trkC (human trkC-gD); test: SPR (BIAcore), IgG over immobilized gD-trkC (400-600 RU)
trkC mutant L284E [6] = biological target: T6, trkC mutant L284E (human, UniProt Q16288 32-429, limits assumed); test: binding to trkC point mutants (NB = no binding observed)
T6 construct: point mutant in domain 5

trkC mutant E287K [7] = biological target: T7, trkC mutant E287K (human, UniProt Q16288 32-429, limits assumed); test: as above
T7 construct: point mutant in domain 5

trkC mutant N335A [8] = biological target: T8, trkC mutant N335A (human, UniProt Q16288 32-429, limits assumed); test: as above
T8 construct: point mutant in domain 5

[9] = biological target: wildtype trkC (reference of Table 5) (human, UniProt Q16288 32-429, limits assumed); test: binding titration on trkC point mutants; wildtype reference row
[10] = biological target: T1, gD-tagged trkC (human trkC-gD); test: competition ELISA on gD-trkC; competitor: unlabelled 2250 (50 µg/ml); biotin-MAb 1 µg/ml; SA-HRP;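 also: negative control competitors were unlabelled human IgG2 and mouse IgG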
Experimental: (§1) A competition ELISA was used to get preliminary information about various groups to which these antibodies belong depending on the epitope(s) on trkC they recognize. In this assay, trkC-gD (1 μg/ml) was used as a capture antigen to coat microliter plate. A specific biotinylated anti-trkC monoclonal antibody (1 μg/ml) was added to the coated plate either alone or in presence of another anti-trkC monoclonal antibody that was unlabeled and used in excess (50 μg/ml) as compared to the labeled antibody. If biotinylated antibody and unlabeled antibody both recognize the same or overlapping epitope, they will compete for binding to the immobilized trkC, resulting in decreased binding of the labeled antibody. If they recognize different and non-overlapping epitopes, there will be no competition between them, and the binding of the labeled antibody to the immobilized trkC will not be affected. Unlabeled human IgG2 and mouse IgG were used as negative control.

[11] = biological target: T1, gD-tagged trkC (human trkC-gD); test: competition ELISA on gD-trkC; competitor: unlabelled 2253 (50 µg/ml); biotin-MAb 1 µg/ml; SA-HRP;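 also: negative control competitors were unlabelled human IgG2 and mouse IgG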
Experimental: as §1

[12] = biological target: T1, gD-tagged trkC (human trkC-gD); test: competition ELISA on gD-trkC; competitor: unlabelled 2345 (50 µg/ml); biotin-MAb 1 µg/ml; SA-HRP;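 also: negative control competitors were unlabelled human IgG2 and mouse IgG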
Experimental: as §1

[13] = biological target: T1, gD-tagged trkC (human trkC-gD); test: competition ELISA on gD-trkC; competitor: unlabelled 2349 (50 µg/ml); biotin-MAb 1 µg/ml; SA-HRP;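 also: negative control competitors were unlabelled human IgG2 and mouse IgG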
Experimental: as §1

[14] = biological target: T1, gD-tagged trkC (human trkC-gD); test: competition ELISA on gD-trkC; competitor: unlabelled 2.5.1 (50 µg/ml); biotin-MAb 1 µg/ml; SA-HRP;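 also: negative control competitors were unlabelled human IgG2 and mouse IgG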
Experimental: as §1

[15] = biological target: T1, gD-tagged trkC (human trkC-gD); test: competition ELISA on gD-trkC; competitor: unlabelled 6.1.2 (50 µg/ml); biotin-MAb 1 µg/ml; SA-HRP;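 also: negative control competitors were unlabelled human IgG2 and mouse IgG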
Experimental: as §1

trkC mutant N335A [16] = biological target: T8, trkC mutant N335A; test: binding titration on trkC point mutants
[17] = biological target: T1, gD-tagged trkC (human trkC-gD); test: competition ELISA on gD-trkC; competitor: unlabelled 2256 (50 µg/ml); biotin-MAb 1 µg/ml; SA-HRP;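 also: negative control competitors were unlabelled human IgG2 and mouse IgG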
Experimental: as §1

[18] = biological target: T1, gD-tagged trkC (human trkC-gD); test: competition ELISA on gD-trkC; competitor: unlabelled 6.4.1 (50 µg/ml); biotin-MAb 1 µg/ml; SA-HRP;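 also: negative control competitors were unlabelled human IgG2 and mouse IgG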
Experimental: as §1

[19] = biological target: T2, trkC fused with a gD flag epitope, on …; test: cell-based or functional assay; remark: listed apart in the source
trkC mutant L284E [20] = biological target: T6, trkC mutant L284E; test: binding titration on trkC point mutants
trkC mutant E287K [21] = biological target: T7, trkC mutant E287K; test: binding titration on trkC point mutants
[22] = biological target: T1, gD-tagged trkC (human trkC-gD); test: SPR (BIAcore), gD-trkC over immobilized IgG
trkC mutant R285A [23] = biological target: T3, trkC mutant R285A; test: binding to trkC point mutants (NB = no binding observed)
trkC mutant L286H [24] = biological target: T4, trkC mutant L286H; test: as above

T5 sequence (Q16288 32-429 S70N/H349A limits assumed): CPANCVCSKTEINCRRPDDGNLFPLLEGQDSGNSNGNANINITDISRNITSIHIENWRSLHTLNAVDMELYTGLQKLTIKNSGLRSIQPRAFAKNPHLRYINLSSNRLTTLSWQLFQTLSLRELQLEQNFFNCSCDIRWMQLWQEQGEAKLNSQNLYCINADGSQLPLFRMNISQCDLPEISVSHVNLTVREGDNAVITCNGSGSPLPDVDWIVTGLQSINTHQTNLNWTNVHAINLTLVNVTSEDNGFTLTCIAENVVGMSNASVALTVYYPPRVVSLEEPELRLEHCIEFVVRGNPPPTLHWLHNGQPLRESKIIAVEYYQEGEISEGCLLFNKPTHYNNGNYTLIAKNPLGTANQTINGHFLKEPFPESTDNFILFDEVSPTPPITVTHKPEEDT
T3 sequence (Q16288 32-429 S70N/R316A limits assumed): as the sequence (Q16288 32-429 S70N/H349A limits assumed) above, with R285A, A318H counted along it
T7 sequence (Q16288 32-429 S70N/E318K limits assumed): as the sequence (Q16288 32-429 S70N/H349A limits assumed) above, with E287K, A318H counted along it
T4 sequence (Q16288 32-429 S70N/L317H limits assumed): as the sequence (Q16288 32-429 S70N/H349A limits assumed) above, with L286H, A318H counted along it
wildtype trkC (reference of Table 5), sequence (Q16288 32-429 S70N limits assumed): as the sequence (Q16288 32-429 S70N/H349A limits assumed) above, with A318H counted along it
T1 sequence (Q16288 32-429 S70N): as the sequence (Q16288 32-429 S70N/H349A limits assumed) above, with A318H counted along it
T6 sequence (Q16288 32-429 S70N/L315E limits assumed): as the sequence (Q16288 32-429 S70N/H349A limits assumed) above, with L284E, A318H counted along it
T8 sequence (Q16288 32-429 S70N/N366A limits assumed): as the sequence (Q16288 32-429 S70N/H349A limits assumed) above, with A318H, N335A counted along it

Row | Binder | Kd [1] | EC50 (read off the curve), trkC tyrosine phosphorylation, KIRA [2] | ratio EC50 mutant/EC50 wildtype trkC (trkC mutant R285A [3]) | ratio EC50 mutant/EC50 wildtype trkC (trkC mutant L286H [4]) | ratio EC50 mutant/EC50 wildtype trkC (trkC mutant H318A) | Kd [5] | binding result (trkC mutant L284E [6]) | binding result (trkC mutant E287K [7]) | ratio EC50 mutant/EC50 wildtype trkC [9] | signal of the biotin-MAb in the competition ELISA [10] | signal of the biotin-MAb in the competition ELISA [11] | signal of the biotin-MAb in the competition ELISA [12] | signal of the biotin-MAb in the competition ELISA [13] | signal of the biotin-MAb in the competition ELISA [14] | signal of the biotin-MAb in the competition ELISA [15] | ratio EC50 mutant/EC50 wildtype trkC (trkC mutant N335A [16]) | signal of the biotin-MAb in the competition ELISA [17] | signal of the biotin-MAb in the competition ELISA [18] | EC50 (read off the curve), trkC tyrosine phosphorylation, KIRA [19] | Kd [22] | further results
1 | anti-trkC agonist monoclonal antibody 2345 (antibody, human IgG2, V domains shown, human IgG2 from Xenomouse hybridoma; heavy chain subgroup II, light chain kappa III) VH: QVQLQESGPGLVKPSQTLSLTCTVSGGSISSGGYYWSWIRQHPEKGLEWIGYIFYSGRTYYNPSLKSRVTISVDTSKNQFSLKLNSVTAADTAVYYCARERIAAAGADYYYNGLDVWGQGTTVTVSS VL: EIVLTQSPGTLSLSPGERATLSCRASQSVSSNYLTWYQQKPGQAPRLLIYGASSRATGIPDRFSGSGSGTDFTLTISRLEPEDFAVYYCQQYGRSPPITFGQGTRLEIKR | 12.1 nM | ~2 nM | 1 ratio | 0.5 ratio | 1 ratio | 12 nM | no binding | no binding | 1 ratio | 0.04 | 0.07 | 0.04 | 0.02 | 0.17 | 0.11 | – | – | – | – | – | binding result (trkC mutant N335A [8]): no binding
2 | anti-trkC agonist monoclonal antibody 2349 (antibody, human IgG4, V domains shown, human IgG4 from Xenomouse hybridoma; heavy chain subgroup II, light chain kappa III) VH: QVQLQESGPGLVKPSQTLSLTCTVSGGSISSGYYYWSWIRQHPGKGLEWIGYIYYSGSTYYNPSLKSRLTISVDTSKNQFSLKLSSVTAADTAVYYCARERIAAAGTDYYYNGLAVWGQGTTVTVSS VL: GIVLTQSPGTLSLSPGERATFSCRASQSGSSTYLAWYQQKPGQAPRLLIYGASSRATGIPDRFSGSGSGTDFTLTISRLEPEDFAVYYCQQYGRSPPITFGQGTRLEIKR | 23 nM | ~3 nM | 0.9 ratio | 0.6 ratio | 0.7 ratio | 23 nM | no binding | no binding | 1 ratio | 0.02 | 0.03 | 0.01 | 0 | – | 0.04 | 1.5 ratio | 0.02 | 0.03 | – | – | –
3 | anti-trkC agonist monoclonal antibody 2256 (antibody, mouse IgG1, V domains shown, murine IgG1; heavy chain subgroup IIA, light chain kappa III) VH: QVQLQQPGAELVKPGASVKLSCKASGYTFTSYWMHWVKQRPGQGLEWIGEIYPSNGRTNYNEKFKSKATLTVDKSSSTAYMQLSSLTSEDSAVYYCARKYYYGNSYRSWYFDVWGAGTTLTVSS VL: not shown | 62 nM | – | – | 0.6 ratio | 0.8 ratio | 62 nM | – | – | 1 ratio | 0.01 | 0.02 | – | 0.07 | – | 0.13 | 0.5 ratio | 0.02 | 0.12 | ~4 nM | 300 nM | ratio EC50 mutant/EC50 wildtype trkC (trkC mutant L284E [20]): 1.1 ratio; ratio EC50 mutant/EC50 wildtype trkC (trkC mutant E287K [21]): 0.7 ratio; binding result (trkC mutant R285A [23]): no binding
4 | anti-trkC agonist monoclonal antibody 6.4.1 (antibody, human IgG2, V domains shown, human IgG2 from Xenomouse hybridoma; heavy chain subgroup II, light chain kappa I; also called Mab 6.4.1) VH: QVQLQESGPGLVRPSETLSLTCTVSGGSISTYYWNWIRQPAGKGLEWIGRIYTSGSTNYNPSLKSRVTMSVDTSKNQFSLKLSSVTAADTAVYYCARDGGYSNPFDWGQGTLVTVSS VL: not shown | 12 nM | ~3 nM | 0.8 ratio | – | 0.7 ratio | 12 nM | no binding | no binding | 1 ratio | 0.1 | 0.03 | 0.12 | 0.1 | – | – | 0.3 ratio | 0.1 | 0.07 | – | 28 nM | binding result (trkC mutant L286H [24]): no binding
5 | neurotrophin-3 (NT-3) (ligand, UniProt P20783 139-257, looked up) YAEHKSHRGEYSVCDSESLWVTDKSSAIDIRGHQVTVLGEIKTGNSPVKQYFYETRCKEARPVKNGCRGIDDKHWNSQCKTSQTYVRALTSENNKLVGWRWIRIDTSCVCALSRKIGRT | – | 5 to 9 nM | – | – | – | – | – | – | – | – | – | – | – | – | – | – | – | – | 5 to 9 nM | – | –
6 | anti-trkC agonist monoclonal antibody 2253 (antibody, mouse IgG1, V domains shown, murine IgG1; heavy chain subgroup IIA, light chain kappa IV) VH: QVQLQQSGAELMQPGASVKISCKSTGYTFSNFWIEWVKQRPGHGLEWIGEILPGSDNTNYNEKFKGKATFTADTSSNTAYMQLSSLTSEDSAVYYCARKNRNYYGNYVVWGAGTTLTVSS VL: QIVLTQSPAIMSASPGEKVTITCSASSSVSYMYWFQQKPGTSPKLWIYSTSNLASGVPARFSGSGSGTSYSLTISRMEAEDAATYYCQQRSSYPLTFGAGTKLELKR | 42 nM | – | 0.9 ratio | 0.4 ratio | 0.8 ratio | 42 nM | – | – | 1 ratio | 1.24 | 0 | 1.4 | – | 1.4 | – | 0.5 ratio | 1.34 | – | – | 51 nM | ratio EC50 mutant/EC50 wildtype trkC (trkC mutant L284E [20]): 0.7 ratio; ratio EC50 mutant/EC50 wildtype trkC (trkC mutant E287K [21]): 0.7 ratio
